From article PMC5433836 (Biochemistry, 2016)
Entries after “also recorded” stand apart in the source; their conditions may differ. Where two headings read alike, the source gives them in different places. Where no end group is shown, it is not given here. The star is where a group is joined. RhodamineB = CCN(CC)c1ccc2c(-c3ccccc3C(=O)*)c3ccc(=[N+](CC)CC)cc-3oc2c1

Columns and labels:
[1] = target: Pals1 (UniProt Q8N3R9); conditions: cited from earlier work
[2] = system: Par-6 PDZ^156–255; assay: 1H-15N HSQC NMR titration of PDZ^156–255 with peptide; format: binding, D. melanogaster; conditions: 25 °C, 0.1–0.25 mM 15N-labeled protein, 90% H2O/10% D2O, pH 5.5
[3] = target: disulfide-stabilized Par-6 CRIB-PDZ (CRIB-PDZ^Q144C/L164C) (D. melanogaster); assay: ITC
[4] = target: Par-6; conditions: Cdc42-GTP:Par-6; cited from earlier work
[5] = target: Crumbs CTD (UniProt P10040); conditions: cited from earlier work
[6] = target: Par-6 CRIB-PDZ module (CRIB-PDZ^130–255) (D. melanogaster) (UniProt O97111); assay: fluorescence polarisation
[7] = target: Par-6 PDZ domain (residues 156–255) (D. melanogaster) (UniProt O97111); assay: fluorescence polarisation
[8] = target: disulfide-stabilized Par-6 CRIB-PDZ (CRIB-PDZ^Q144C/L164C) (D. melanogaster); assay: fluorescence polarisation
[9] = target: Par-6 CRIB-PDZ module (CRIB-PDZ^130–255) (D. melanogaster) (UniProt O97111); assay: fluorescence polarisation; remark: listed apart in the source
[10] = target: Cdc42:CRIB-PDZ^130–255 complex (Cdc42 loaded with GMPPNP) ( | D. melanogaster, UniProt P60953 1-191; O97111 130-255); assay: fluorescence polarisation

Sequence of Pals1 (Q8N3R9 whole entry): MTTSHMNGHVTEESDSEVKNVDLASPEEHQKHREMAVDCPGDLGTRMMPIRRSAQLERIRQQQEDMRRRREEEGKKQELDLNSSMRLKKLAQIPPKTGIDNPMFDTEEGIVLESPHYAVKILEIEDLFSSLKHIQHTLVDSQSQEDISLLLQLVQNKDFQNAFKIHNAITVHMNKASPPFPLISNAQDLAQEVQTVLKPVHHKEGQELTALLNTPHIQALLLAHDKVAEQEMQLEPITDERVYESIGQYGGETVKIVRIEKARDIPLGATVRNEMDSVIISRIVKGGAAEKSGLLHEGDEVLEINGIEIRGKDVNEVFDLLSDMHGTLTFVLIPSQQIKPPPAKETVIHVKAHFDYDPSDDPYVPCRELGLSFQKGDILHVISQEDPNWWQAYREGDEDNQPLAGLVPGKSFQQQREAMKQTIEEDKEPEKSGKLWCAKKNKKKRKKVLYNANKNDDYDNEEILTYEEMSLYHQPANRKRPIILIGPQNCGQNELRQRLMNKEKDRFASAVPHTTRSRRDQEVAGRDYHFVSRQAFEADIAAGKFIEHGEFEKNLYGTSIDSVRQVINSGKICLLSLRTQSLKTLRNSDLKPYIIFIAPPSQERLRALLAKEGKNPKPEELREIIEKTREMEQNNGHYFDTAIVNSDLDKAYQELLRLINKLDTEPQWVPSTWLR
Sequence of Crumbs CTD (P10040 2110-2146): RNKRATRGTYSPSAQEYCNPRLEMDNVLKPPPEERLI

In the case of Par-6 CRIB-PDZ (from UniProt Q9NPB6), the Kd [1] is listed as 6 µM.

In the case of LPPEERLI [LPPEERLI], the “HSQC titration behaviour / binding mode” value [2] is reported as “Significant shifts were observed for many amino acids in and near the PDZ ligand binding cleft; also recorded: consistent with binding at a second, low affinity site”.

VKESLV peptide gave a Kd [3] of 17 µM, a dH [3] of -3.4 kcal/mol and a stoichiometry N [3] of 1.09.

For “Cdc42-GTP: monomeric GTPase Cdc42 bound to GTP; binds the CRIB module of Par-6”, the Kd [4] is listed as ~0.05 µM and the binding energy [4] is listed as ~ 10 kcal/mol.

In the case of Pals1 PDZ-SH3-GK (from UniProt Q8N3R9), the Kd [5] is given as 0.1 µM.

B1: N-terminally Rhodamine B-labeled GEERLI peptide (peptide)
peptide: RhodamineB-GEERLI
B1 showed a Kd [6] of 7.3 µM, a Kd [7] of 12 µM and a Kd [8] of 2.5 µM. The Kd [9] was 7.2 µM and the Kd [10] was 1.2 µM.

B2: modified Crumbs peptide lacking the proline residues (GEERLI) (peptide)
peptide: GEERLI
With B2 the Kd [3] was 1.9 µM, the dH [3] was -7.21 kcal/mol and the stoichiometry N [3] was 1.05.

B3: N-terminally Rhodamine B-labeled VKESLV peptide (peptide)
peptide: RhodamineB-VKESLV
For B3, the Kd [6] was 54 µM, the Kd [7] was 72 µM and the Kd [8] was 13 µM. It also gave a Kd [10] of 6 µM.
